Laboratory results: patent US20170327854A1, “METHODS FOR CELLOBIOSAN UTILIZATION” (Alliance for Sustainable Energy, LLC, priority 2015, published 2017)

What was measured:
P. putida strain FJPO3 = assay: Growth and mcl-PHA production of strain FJPO3 on levoglucosan; assay type: cell-based, Pseudomonas putida
Text: The levoglucosan kinase (lgk) gene from Lipomyces starkeyi was codon optimized using Gene Designer software from DNA 2.0 and synthesized as a gBlock (SEQ ID NO:1). This fragment was cloned into plasmid pMFL76, which is derived from the commercial PCR-Blunt II Topo vector (ThermoFisher), with the addition of two 1-kb genomic regions located in proximity of the rpoS region of the genome from Pseudomonas putida KT2440 to enable homologous recombination mediated genomic integration into strain KT2440. The Ptac-lgk was inserted in between these 1 kb homology regions and transformed into KT2440. A single kanamycin-resistant transformant was isolated and growth in M9 levoglucosan was confirmed, to generate strain FJPO3.
P. putida produces medium chain-length polyhydroxy-alkanoates (mcl-PHAs), which are high-value polymers that can serve as plastics, adhesive precursors, and as precursors to chemical building blocks or hydrocarbons. As mcl-PHAs represent a potential target to generate from pyrolytic sugars, the generation of mcl-PHAs by P. putida using levoglucosan as its sole carbon source as investigated.
Most growths were in a modified formulation of M9 minimal salts. Briefly, 6.78 g Na2PO4 (anhydrous), 3 g KH2PO4, and 0.5 g NaCl were dissolved in 750 mL deionized H2O. The pH was adjusted to 7.4 with 10 N NaOH and brought to 900 mL with H2O. The solution was autoclaved for 15 minutes at 121° C. and allowed to cool. […]
Growth curves were generated using a Bioscreen C automated microbiology growth curve analysis system from Growth Curves USA. […] Spectrophotometric blanks were subtracted from the measured values and each growth curve represents the average of three independent cultures. The maximum specific growth rate (μmax) was calculated as the maximum slope of the log phase of the growth curve over any given 4 hour period during the course of the experiment. […]
One mL of saturated cultures was centrifuged at 5,000×g for 5 minutes. […] Nile Red fluorescence was detected between 560 and 590 nm using band-pass filtering.

[1] = β-Glucosidase mediated cleavage of cellobiosan (HPLC); assay type: biochemical; settings: cellobiosan 2 mg/mL, 2.5 to 20 μg of enzyme (four enzyme loadings), 40° C., 90 minutes, FIG. 5
Method: (§1) Following the β-glucosidase reaction period, the tubes were placed on ice, filtered through a 0.2 μm filter and analyzed via High-Performance Liquid Chromatography (HPLC; Agilent 1100 series system (Agilent USA, Santa Clara, Calif.)) using a Shodex SP0810 carbohydrate column with de-ashing guard cartridges (BioRad Laboratories, Hercules, Calif.) run at 85° C. with ultra-pure water as the isocratic mobile phase at a flow rate of 0.6 mL/min. A refractive index detector was used for compound detection. By-products were identified by co-elution at the same retention time with pure compounds. Standard curves for substrate (cellobiosan) and products (glucose and levoglucosan) were also generated in order to quantify results. Additionally, enzymes were analyzed via HPLC in buffer alone (without cellobiosan) to ensure no carry-over products inherent to the enzyme preparations.
Each reaction was set up in 1.5 mL microcentrifuge tubes using cellobiosan at a concentration of 2 mg/mL in the following buffers: 50 mM sodium maleate, pH 6.5 (T. maritima and Agrobacterium sp.), and 100 mM sodium acetate, pH 5.0 (P. chrysosporium and A. niger). For each reaction, 2.5 to 20 μg of enzyme was loaded and the total reaction volume was 400 μL. An additional enzyme-free reaction was run simultaneously to ensure cellobiosan cleavage was enzyme-dependent. Reactions were incubated at 40° C. using a dry-block for 90 minutes. In a separate reaction evaluating the substrate concentration, 0.125 μM of purified A. niger β-glucosidase was incubated at 40° C. in a 96-well microtiter plate with 0, 0.5, 1, 2, 4, 8, 16 or 32 mM cellobiose or cellobiosan. Reactions were initiated by the addition of enzyme and quenched by boiling in a thin walled PCR tube at 0.5, 1, 5 and 10 minutes.
as §1, with “the” for “the β-glucosidase”, “periods,” for “period,”, “Agilent1100” for “Agilent 1100”, “ml min^−1.” for “mL/min.”, “(without the addition of” for “(without”

[2] = tested on: P. putida strains FJPO3 and KT2440; assay: Growth of P. putida strains on cellobiose or cellobiosan with addition of abg β-glucosidase; assay type: cell-based, Pseudomonas putida
Method: Most growths were in a modified formulation of M9 minimal salts. Briefly, 6.78 g Na2PO4 (anhydrous), 3 g KH2PO4, and 0.5 g NaCl were dissolved in 750 mL deionized H2O. The pH was adjusted to 7.4 with 10 N NaOH and brought to 900 mL with H2O. The solution was autoclaved for 15 minutes at 121° C. and allowed to cool. One hundred μL of 1 M CaCl2 (100 μM final) and 2 mL of 1 M MgSO4-7H2O (2 mM Final), 1 mL of 100 mM FeSO4, (100 μM final) and 10 mL 1 M (NH4)2SO4 (10 mM final) was added. In the case of FIG. 2, 1 mM (NH4)2SO4, was used to induce mcl-PHA production.
Growth curves were generated using a Bioscreen C automated microbiology growth curve analysis system from Growth Curves USA. Overnight cultures were diluted to 0.02 OD in a total volume of 300 μL per well. Incubations were performed at 30° C. with continuous shaking and turbidity measurements (OD420-580) were collected every 15 minutes for the duration of the experiments. Spectrophotometric blanks were subtracted from the measured values and each growth curve represents the average of three independent cultures. The maximum specific growth rate (μmax) was calculated as the maximum slope of the log phase of the growth curve over any given 4 hour period during the course of the experiment. […]

Molecule: O[C@@H]1[C@@H](O)[C@@H]2OC[C@@H](O2)[C@H]1O [levoglucosan]
- growth profile of FJPO3 compared with glucose (P. putida strain FJPO3; M9 medium, 7.5 g/L levoglucosan vs 7.5 g/L glucose, FIG. 2 Panel A): similar
- concentration at which FJPO3 has the capacity to grow (P. putida strain FJPO3; M9 medium, FIG. 2 Panel B): ≤ 60 g/L
- mcl-PHA production by FJPO3 (Nile Red fluorescence) (P. putida strain FJPO3; N-limited medium [M9 1mM (NH4)2SO4], levoglucosan as sole carbon source, FIG. 2 Panel C): produces mcl-PHAs

Molecule: bgl1A: P. chrysosporium β-glucosidase, GH3, GenBank AAC26489, SEQ ID NO: 4
- cleavage of cellobiosan to generate glucose and levoglucosan [1]: able to cleave cellobiosan

B1: abg: Agrobacterium sp. β-glucosidase, GH1, GenBank AAA22085.1, SEQ ID NO: 6 (protein, listed as Agrobacterium sp.)
chain: MTDPNTLAARFPGDFLFGVATASFQIEGSTKADGRKPSIWDAFCNMPGHVFGRHNGDIACDHYNRWEEDLDLIKEMGVEAYRFSLAWPRIIPDGFGPINEKGLDFYDRLVDGCKARGIKTYATLYHWDLPLTLMGDGGWASRSTAHAFQRYAKTVMARLGDRLDAVATFNEPWCAVWLSHLYGVHAPGERNMEAALAAMHHINLAHGFGVEASRHVAPKVPVGLVLNAHSAIPASDGEADLKAAERAFQFHNGAFFDPVFKGEYPAEMMEALGDRMPVVEAEDLGIISQKLDWWGLNYYTPMRVADDATPGVEFPATMPAPAVSDVKTDIGWEVYAPALHTLVETLYERYDLPECYITENGACYNMGVENGQVNDQPRLDYYAEHLGIVADLIRDGYPMRGYFAWSLMDNFEWAEGYRMRFGLVHVDYQTQVRTVKNSGKWYSALASGFPKGNHGVAKG
- growth of FJPO3 and KT2440 in M9 medium containing cellobiosan plus abg ([2]; cellobiosan, twenty micrograms of enzyme, 30° C., FIG. 6): both FJPO3 and KT2440 are capable of utilizing the glucose component of cellobiosan
- growth profiles of KT2440 and FJPO3 in M9 medium containing cellobiose with addition of abg ([2]; cellobiose, FIG. 6 Panel A): virtually indistinguishable
- cleavage of cellobiosan to generate glucose and levoglucosan [1]: able to cleave cellobiosan

B2: bgl1: A. niger β-glucosidase, GH3, GenBank AJ132386, SEQ ID NO: 3 (protein)
chain: MRFTLIEAVALTAVSLASADELAYSPPYYPSPWANGQGDWAQAYQRAVDIVSQMTLDEKVNLTTGTGWELELCVGQTGGVPRLGVPGMCLQDSPLGVRDSDYNSAFPAGMNVAATWDKNLAYLRGKAMGQEFSDKGADIQLGPAAGPLGRSPDGGRNWEGFSPDPALSGVLFAETIKGIQDAGVVATAKHYIAYEQEHFRQAPEAQGFGFNISESGSANLDDKTMHELYLWPFADAIRAGAGAVMCSYNQINNSYGCQNSYTLNKLLKAELGFQGFVMSDWAAHHAGVSGALAGLDMSMPGDVDYDSGTSYWGTNLTISVLNGTVPQWRVDDMAVRIMAAYYKVGRDRLWTPPNFSSWTRDEYGYKYYYVSEGPYEKVNQYVNVQRNHSELIRRIGADSTVLLKNDGALPLTGKERLVALIGEDAGSNPYGANGCSDRGCDNGTLAMGWGSGTANFPYLVTPEQAISNEVLKHKNGVFTATDNWAIDQIEALAKTASVSLVFVNADSGEGYINVDGNLGDRRNLTLWRNGDNVIKAAASNCNNTIVVIHSVGPVLVNEWYDNPNVTAILWGGLPGQESGNSLADVLYGRVNPGAKSPFTWGKTREAYQDYLVTEPNNGNGAPQEDFVEGVFIDYRGFDKRNETPIYEFGYGLSYTTFNYSNLEVQVLSAPAYEPASGETEAAPTFGEVGNASDYLYPSGLQRITKFIYPWLNGTDLEASSGDASYGQDSSDYLPEGATDGSAQPILPAGGGPGGNPRLYDELIRVSVTIKNTGKVAGDEVPQLYVSLGGPNEPKIVLRQFERITLQPSEETKWSTTLTRRDLANWNVEKQDWEITSYPKMVFVGSSSRKLPLRASLPTVH
modifications: Aspergillus niger
- cleavage of cellobiosan to generate glucose and levoglucosan [1]: able to cleave cellobiosan

B3: bglA: T. maritima β-glucosidase, GH1, GenBank CAA52276.1, SEQ ID NO: 5 (protein, listed as Thermotoga maritima)
chain: MNVKKFPEGFLWGVATASYQIEGSPLADGAGMSIWHTFSHTPGNVKNGDTGDVACDHYNRWKEDIEIIEKLGVKAYRFSISWPRILPEGTGRVNQKGLDFYNRIIDTLLEKGITPFVTIYHWDLPFALQLKGGWANREIADWFAEYSRVLFENFGDRVKNWITLNEPWVVAIVGHLYGVHAPGMRDIYVAFRAVHNLLRAHARAVKVFRETVKDGKIGIVFNNGYFEPASEKEEDIRAVRFMHQFNNYPLFLNPIYRGDYPELVLEFAREYLPENYKDDMSEIQEKIDFVGLNYYSGHLVKFDPDAPAKVSFVERDLPKTAMGWEIVPEGIYWILKKVKEEYNPPEVYITENGAAFDDVVSEDGRVHDQNRIDYLKAHIGQAWKAIQEGVPLKGYFVWSLLDNFEWAEGYSKRFGIVYVDYSTQKRIVKDSGYWYSNVVKNNGLED
- cleavage of cellobiosan to generate glucose and levoglucosan [1]: able to cleave cellobiosan
